The text below walks through data of patent US20140286859A1.

Experiment [1] addresses prostate specific membrane antigen (PSMA), full-length human (human) (UniProt Q04609). As to the kind of experiment: cell-based or functional assay.
For experiment [2] the target is unchanged. Kind of experiment: fraction of radiolabeled mAb bound to excess cells, average of runs.
For experiment [3] the target is unchanged. Kind of experiment: fraction of radiolabeled mAb bound to excess cells, PSMA-3T3 (bracket: 3T3 control).
For experiment [4] the target is unchanged. Kind of experiment: fraction of radiolabeled mAb bound to excess cells, PSMA-3T3.

Sequence of prostate specific membrane antigen (PSMA), full-length human (human) (Q04609 whole entry): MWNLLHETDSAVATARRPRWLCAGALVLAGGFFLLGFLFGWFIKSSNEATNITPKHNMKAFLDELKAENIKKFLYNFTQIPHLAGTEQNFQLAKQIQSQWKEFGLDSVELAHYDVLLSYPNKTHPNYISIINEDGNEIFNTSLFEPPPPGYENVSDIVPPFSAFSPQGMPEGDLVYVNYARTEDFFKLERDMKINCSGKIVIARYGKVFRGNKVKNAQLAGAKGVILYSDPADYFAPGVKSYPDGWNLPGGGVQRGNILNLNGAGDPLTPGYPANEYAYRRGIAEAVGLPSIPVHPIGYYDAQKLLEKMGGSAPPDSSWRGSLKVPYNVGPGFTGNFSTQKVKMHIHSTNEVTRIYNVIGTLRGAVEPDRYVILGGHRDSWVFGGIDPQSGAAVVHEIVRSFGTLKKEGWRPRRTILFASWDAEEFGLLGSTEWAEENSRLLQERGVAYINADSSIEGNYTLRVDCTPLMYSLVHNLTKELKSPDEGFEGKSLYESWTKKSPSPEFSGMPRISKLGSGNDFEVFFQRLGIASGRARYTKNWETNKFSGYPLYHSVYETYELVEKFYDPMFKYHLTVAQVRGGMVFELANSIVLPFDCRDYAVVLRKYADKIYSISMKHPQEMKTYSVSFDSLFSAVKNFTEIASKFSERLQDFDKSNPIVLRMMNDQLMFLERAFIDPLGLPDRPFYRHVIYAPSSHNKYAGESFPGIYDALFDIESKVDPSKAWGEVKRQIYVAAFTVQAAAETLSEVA

mJ591 (antibody): in experiment [1], the immunotoxin cytotoxicity (saporin-linked secondary antibody) on C4-2 cells, LD50 is 88.2 pM and the immunotoxin cytotoxicity (saporin-linked secondary antibody) on PSMA-3T3 cells, LD50 stood at 89 pM.
Substance “^111In mJ591 (In-111 labeled CHX-A''-DTPA mJ591) (antibody)” came in with an Immunoreactivity (%), average in experiment [2] of 56.7%. Besides, the values for the Immunoreactivity (%) in experiment [3] and in experiment [4] were 54.9% and 58.5%, respectively.
